Measurements reported in the supplement of paper PMC10724198.
± gives the standard deviation of the averaged measurements.

tested on: Saccharomyces cerevisiae; experiment: protein stability index of tFT-peptide fusion (C-terminal peptide) (PSI (0-1 scale)); higher = more stable (slower turnover); conditions: genetic background: wild type; temperature: 30 C
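Note: PSI is a weighted mean of sequencing reads over stability bins, variants kept only with over 10 reads, mCherry proximal and sfGFP distal, peptide attached via GGGS linker.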

Going from QGGGGGGVCGMV to QGLSFVSVSPRP, the protein stability index rises from 0.721 ± 0.011 to 0.795 ± 0.029.

First: QGPPPTPASHGP
Second: QGRPPADRATAV
The protein stability index of the first is lower: 0.672 ± 0.026 for the first, 0.755 ± 0.029 for the second.

QGSAGRHVRTNL and QIISSVFEATSY are within error of each other in protein stability index: 0.701 ± 0.06 for the first, 0.606 ± 0.037 for the second.

First: QKAQLISQVNTG
Second: QKDLVGSKSEYE
The protein stability index of the first is lower: 0.6682 ± 0.0065 for the first, 0.735 ± 0.058 for the second.

QKGGGGEVGAEG and QKIIKKIQTIVD are within error of each other in protein stability index: 0.699 ± 0.066 for the first, 0.697 ± 0.027 for the second.

Going from QKKKKKKKRKKT to QKKKKRKDKRTK, the protein stability index rises from 0.59 ± 0.062 to 0.7067 ± 0.0053.

QKPKDKKKRTKE and QLETAIEEKNNE are within error of each other in protein stability index: 0.679 ± 0.05 for the first, 0.704 ± 0.0087 for the second.

First: QLFAYFLGAVIL
Second: QLGRVSRLVGVC
The protein stability index of the first is higher: 0.611 ± 0.023 for the first, 0.537 ± 0.0081 for the second.

First: QLLCLFSIPRSA
Second: QLPALPPLHSSP
The protein stability index of the first is higher: 0.7241 ± 0.0043 for the first, 0.6982 ± 0.0022 for the second.

First: QLVCCAKCGAVG
Second: QLVSNNCSLVMC
The protein stability index of the first is higher: 0.665 ± 0.035 for the first, 0.532 ± 0.02 for the second.

QMGGGGEVGAEG and QMSAATLLFSRL are within error of each other in protein stability index: 0.724 ± 0.009 for the first, 0.734 ± 0.029 for the second.

QMTSRVPIGRLY and QNKKKEKKQEIQ are within error of each other in protein stability index: 0.696 ± 0.0035 for the first, 0.7 ± 0.042 for the second.

QPGPPPRPHVQP and QPGTRRNNHIQV are within error of each other in protein stability index: 0.676 ± 0.048 for the first, 0.704 ± 0.026 for the second.

QPLSFAYMPPLS and QPRVEYSSYWAV are within error of each other in protein stability index: 0.653 ± 0.033 for the first, 0.644 ± 0.034 for the second.

QQKKKTKGNNEV and QQKKPIRKELRN are within error of each other in protein stability index: 0.661 ± 0.065 for the first, 0.702 ± 0.053 for the second.

Compared with QREKTRSWDIET, QREYHENKIKYI is lower in protein stability index: 0.686 ± 0.041 for the first, 0.563 ± 0.066 for the second.

QRKYTLCVRPFP and QRSPNRISPADY are within error of each other in protein stability index: 0.697 ± 0.037 for the first, 0.798 ± 0.11 for the second.

Going from QRVIELVLISNM to QRWTAGTQIRPV, the protein stability index rises from 0.539 ± 0.043 to 0.706 ± 0.0086.

QSKANIVEEIWI and QSPPDDRPPPHP are within error of each other in protein stability index: 0.688 ± 0.02 for the first, 0.676 ± 0.029 for the second.

QSPRLTSGPQPL and QSQGTRLAPVTR are within error of each other in protein stability index: 0.652 ± 0.022 for the first, 0.729 ± 0.068 for the second.

Going from QTKKKLTQSQRT to QTRDFRRASYAP, the protein stability index falls from 0.694 ± 0.019 to 0.646 ± 0.019.

First: QTVPGKNLDGDL
Second: QVFITGHQLCVM
The protein stability index of the first is higher: 0.714 ± 0.013 for the first, 0.535 ± 0.0064 for the second.

QVGPSPCHPFTL and QVWLLRPAPARV are within error of each other in protein stability index: 0.684 ± 0.0091 for the first, 0.598 ± 0.12 for the second.

QYQDRHIDRSGR and RAARGQQGGPVA are within error of each other in protein stability index: 0.657 ± 0.078 for the first, 0.651 ± 0.041 for the second.

RADIRYCNCRGQ and RADLLQRGGDRI are within error of each other in protein stability index: 0.607 ± 0.045 for the first, 0.677 ± 0.093 for the second.

Going from RAEGGDSGVAAL to RAFASLALAILP, the protein stability index falls from 0.703 ± 0.011 to 0.623 ± 0.038.

RAFEGGRHCRAG and RAGALYLGICDT are within error of each other in protein stability index: 0.67 ± 0.049 for the first, 0.738 ± 0.069 for the second.

RAGCWFAGYSRV and RAGVFLPSGVAI are within error of each other in protein stability index: 0.721 ± 0.078 for the first, 0.663 ± 0.011 for the second.

First: RAGVRWGGGGGG
Second: RAHLVSAPPQNF
The protein stability index of the first is lower: 0.67 ± 0.014 for the first, 0.7074 ± 0.0033 for the second.

RAHSGSTCCGAQ and RAMWAGKGGDGW are within error of each other in protein stability index: 0.698 ± 0.04 for the first, 0.738 ± 0.086 for the second.

RAPDHRPGRLQK and RAPGPGQIRLVQ are within error of each other in protein stability index: 0.724 ± 0.013 for the first, 0.72 ± 0.035 for the second.

RARCFGGFCAIP and RARHDGWRHLYE are within error of each other in protein stability index: 0.724 ± 0.088 for the first, 0.707 ± 0.055 for the second.

Going from RASLTPSDHLFF to RASPPPPPPPPP, the protein stability index falls from 0.766 ± 0.02 to 0.658 ± 0.045.

RASPTTILCKRQ and RAVLSNRVEERI are within error of each other in protein stability index: 0.678 ± 0.025 for the first, 0.696 ± 0.022 for the second.

RAYATPIPRSAI and RCCGLWVDGFLL are within error of each other in protein stability index: 0.655 ± 0.046 for the first, 0.743 ± 0.045 for the second.

RCCLDLLIFPCS and RCERKTGHHYRT are within error of each other in protein stability index: 0.735 ± 0.15 for the first, 0.637 ± 0.072 for the second.

Going from RCETHKDHESNE to RCRGPVYIPPGT, the protein stability index falls from 0.725 ± 0.014 to 0.654 ± 0.027.

First: RCRGTEGWLDSG
Second: RDAPLGRRLRPV
The protein stability index of the first is lower: 0.63 ± 0.009 for the first, 0.678 ± 0.021 for the second.

First: RDGDVRTLMGWD
Second: RDGSNSNGKKKK
The protein stability index of the first is higher: 0.732 ± 0.037 for the first, 0.6 ± 0.051 for the second.

RDLSEGRSPLGI and RDPSIVDHTVVT are within error of each other in protein stability index: 0.661 ± 0.081 for the first, 0.735 ± 0.041 for the second.

RDSLGGRSMHGW and RDVWPFTGKRAL are within error of each other in protein stability index: 0.682 ± 0.029 for the first, 0.672 ± 0.014 for the second.

Compared with REEREISGNLLV, REGKGREQGRKK is lower in protein stability index: 0.7899 ± 0.0075 for the first, 0.616 ± 0.053 for the second.

REGKIVNNKNEN and REGVELTRPVTC are within error of each other in protein stability index: 0.687 ± 0.077 for the first, 0.696 ± 0.041 for the second.

REKDMIKSGIKS and REMDDRLEQSVP are within error of each other in protein stability index: 0.724 ± 0.02 for the first, 0.743 ± 0.017 for the second.

REPPFFRLSPQV and REQKTKDKKKRQ are within error of each other in protein stability index: 0.722 ± 0.042 for the first, 0.703 ± 0.024 for the second.

RERNNISVKGKL and RERPHSDYLACH are within error of each other in protein stability index: 0.679 ± 0.049 for the first, 0.691 ± 0.026 for the second.

RESTKNETSGKK and REVIGFLSYWKG are within error of each other in protein stability index: 0.632 ± 0.04 for the first, 0.711 ± 0.14 for the second.

Going from RFCRAFSGALSR to RFDGLTTALDSV, the protein stability index falls from 0.805 ± 0.021 to 0.669 ± 0.04.

Compared with RFFPPPARPSPF, RFLMGYEVNCAV is lower in protein stability index: 0.732 ± 0.025 for the first, 0.548 ± 0.015 for the second.

First: RFMAFGDKEILR
Second: RFPLCLHLPLLL
The protein stability index of the first is higher: 0.662 ± 0.033 for the first, 0.55 ± 0.012 for the second.

RFPLSLRIPLPK was tested, and the protein stability index was 0.63 ± 0.034.
